The source of these data is PMC11888354.

The target in the experiment is nucleosome with Cy5-labeled human histone octamer (H2A(K119C), H2B, H3(C110A), H4) reconstituted on lambda DNA (human) (UniProt P06899). The experiment can be described thus: single-molecule fluorescence colocalisation.

In turn, “Cy3-labeled human linker histone H1.0(S22C) (from UniProt P07305 1-194) (natural protein)” came in with a nucleosome co-localization dwell time τ slow (with 2 nM Nap1) of 1.1 s.
